The text below walks through data of US20220288124A1 (AUGUSTA UNIVERSITY RESEARCH INSTITUTE, published 2022).

Assay [1] deals with T1, soluble hGPC3 protein (recombinant human glypican 3) (human, UniProt P51654 25-560, limits assumed).
T1 construct: The construct used in ELISA and BLI and as FITC-labelled protein is not further defined; also called rhGPC3; FITC-labeled hGPC3
Description: BLI, 1:1 global fit; kon Error 4.12E+02, R^2 0.9939. Here is the method: (§1) Kinetics experiments were performed using the ForteBio Octet Red96 platform. All data were collected at 25° C. with orbital shaking at 1,000 rpm in 200 μL in 96-well black flat bottom plates (Greiner Bio-one). Anti-hIgG Fc Capture Sensor (ForteBio) were equilibrated for 10 min in 1×kinetics buffer prior to loading with 5 μg/mL of mAbs for 2 min. After the loading step, a 30 s baseline in 1×kinetics buffer was established before association with a range of concentrations of GPC3 for 2 min. Following mAbs association with GP, there was a 10-minute of dissociation step in kinetic buffer. For all experiments, two reference sensors without association to mAbs were used to account for nonspecific binding of analyte to the sensor and the system drift. All data were fit globally to a 1:1 Langmuir binding model using data analysis software 9.0 (ForteBio).
On the technique in general: In BLI a coated tip is dipped into the sample, and binding shifts an interference pattern.

The target of assay [2] is T1, soluble hGPC3 protein (recombinant …). Description: BLI, 1:1 global fit; KD Error 8.68E-11, R^2 0.9939. Here is the method: as §1
Assay [3] shares this target. Description: BLI, 1:1 global fit; kdis(1/s); kdis Error 3.37E-06, R^2 0.9939. The method, then:
as §1

Assay [4] has as its target T2, hGPC3 on the surface of HCC tumor cells (HepG2; hGPC3low Huh7) (human, UniProt P51654 25-554).
T2 construct: whole, on cells; GPI-anchored; also called hGPC3 on HepG2 cells; hGPC3 molecules on the tumor cell surface
Description: immunofluorescent staining of HepG2 cells at different mAb concentrations, percent positive cells; hGPC3 on HepG2 cells. The text has this:
FIG. 3A is an illustration showing the schematic structure of the recombinant mAbs. SP: signal peptide of human IgG; VL: variable region of light chain; VH: variable region of heavy chain; CL: constant region of human IgG light chain; CH: constant region of human IgG heavy chain. FIG. 3B is gel showing PAGE analysis of purified recombinant mAbs under reduced and non-reduced condition. mAbs were purified from the 293 cells after co-transfection of the L and H chain expressing plasmids. Gel was stained with SimplyBlue SafeStain, FIG. 3C is a graph showing the EC50 of recombinant mAbs by ELISA. FIG. 3D is a panel of graphs showing the Kd value of each mAbs was measured by BLI. Each experiment was repeated at least 3 times and similar data were obtained. FIG. 3E is a graph showing the Kd value of mAbs 6G11, 8F8, and 12D7 for staining HepG2 tumor cells. Immunofluorescent staining was conducted for HepG2 tumor cells using the mAbs at different concentration. Based on the percent of positive cells and the mAb concentration, the Kd value was calculated by Prism software.
(§2) The 3 mAbs belong to different Ig classes, i.e., 6G11 and 12D7 are IgM, whereas 8F8 is IgG2a. To fairly compare their affinity, mAbs were generated recombinant using their VL and VH and a same human IgG constant region. Fig.3A illustrates the structure of the recombinant mAbs. The mAbs were expressed and purified from 293 cells (FIG 3B). […] The mAb's affinity was also studied by BioLayer Interferometry (BLI). […] The affinity data obtained by ELISA assay and BLI are in the same order, i.e., 6G11>12D7>8F8. Because the purpose of developing the mAbs is to bind hGPC3 molecules on the tumor cell surface, we determined the affinity of the mAbs for hGPC3 on HepG2 cells.

In assay [5] the target is T1, soluble hGPC3 protein (recombinant …). Description: ELISA of recombinant mAb on hGPC3, OD450. Background: In an ELISA, binding on a coated surface is turned into a signal by an enzyme label.
Assay [6] shares this target. Description: BLI (Octet Red96), mAb captured on anti-hIgG Fc sensor, GPC3 as analyte, 1:1 fit, 25 C; BLI, soluble hGPC3. Here is the method: as §1, §2
In assay [7] the target is T3, N1 peptide (AA25-39 of hGPC3) (human, UniProt P51654 25-39).
T3 construct: range 25-39
T3 peptide (looked up): QPPPPPPDATCHQVR
Description: ELISA on plate-coated synthetic peptide, anti-human IgG-HRP. The method, then:
(§3) 96-well Flat-Bottom Immuno Plates (from Thermo Fisher) were coated with 4 ug of PBS-diluted peptides, overnight, at […]. 1 ug of rhGPC3 (from Creative Biomart) was used as positive control. The next day, peptides were discarded and plates were blocked with 100 μl of 5% non-fat milk in PBS. Then, the plates were washed with 300 μl/well of PBST (0.1% Tween20). Next, incubation with 100 uL/well of different antibody dilutions. This was followed by four washes with PBST. Then, incubation with 100 uL/well of anti-human IgG-HRP (From KPL) (1:2000 dilution). This was followed by four washes with PBST. Next, 100 uL/well of TMB (from Biolengend), incubation for 30 minutes. Then, 100 uL/well of 2N H2SO4. Lastly, OD450 nm was detected in an xMark™ Microplate Spectrophotometer (from BIO-RAD). If not indicated otherwise, incubations were performed for 1 hour at RT, and antibodies were diluted in 2% non-fat milk in PBS.

Assay [8] concerns the target T4, hGPC3-N fragment (AA1-358) (human, UniProt P51654 25-358).
T4 construct: range 1-358; Detected by intracellular staining or western blot of transfected 293/293T cells
Description: flow cytometry, intracellular staining of 293 cells transfected with hGPC3-N; gate set on untransfected cells. The text has this: FIG. 1A is a table of 22 hGPC3-specific mAbs identified by ELISA assay. Their Ig class, staining of HepG2 cells, and binding of the hGPC3 N- or C-fragment were provided. […] FIG. 1B is a panel of micrographs showing representative immunofluorescent stainings of HepG2 tumor cells by 5 mAbs. FIG. 1C is a diagram of plasmids expressing the N- and C-fragments of hGPC3. FIG. 1D is a panel of graphs showing 293 cells transfected with either hGPC3-N or hGPC3-C plasmid intracellularly stained with indicated mAbs. The gate was set by the parental 293T cells without transfection.
A general note: In flow cytometry, cells or beads pass a laser one at a time.

The target in assay [9] is T1, soluble hGPC3 protein (recombinant …). Description: BLI, 1:1 global fit; KD Error 9.61E-11, R^2 0.9958. The method, then:
as §1

The target in assay [10] is T5, N4 (88-126) (human, UniProt P51654).
T5 construct: overlapping synthetic peptide
T5 peptide (looked up): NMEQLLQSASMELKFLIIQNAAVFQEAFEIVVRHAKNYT
Description: ELISA on plate-coated synthetic peptide, anti-human IgG-HRP. Here is the method: as §3

In assay [11] the target is T6, N2 (30-68) (human, UniProt P51654).
T6 construct: overlapping synthetic peptide
T6 peptide (looked up): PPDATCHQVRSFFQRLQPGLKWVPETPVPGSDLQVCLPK
The assay is described as above. Here is the method: as §3

Assay [12] deals with T7, N3 (59-97) (human, UniProt P51654).
T7 construct: overlapping synthetic peptide
T7 peptide (looked up): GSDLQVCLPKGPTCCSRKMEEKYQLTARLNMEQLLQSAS
Described as above. The method, then:
as §3

Assay [13] addresses T1, soluble hGPC3 protein (recombinant …). Description: BLI, 1:1 global fit; kon Error 2.81E+02, R^2 0.9958. The method, then:
as §1

The target is the same in assay [14]. Description: BLI, 1:1 global fit; kdis(1/s); kdis Error 2.89E-06, R^2 0.9958. The method, then: as §1
The target is the same in assay [15]. Description: BLI, 1:1 global fit; kdis(1/s); kdis Error 1.83E-06, R^2 0.9993. The method, then:
as §1

Assay [16] has the same target. Description: BLI, 1:1 global fit; KD Error 2.90E-10, R^2 0.9993. Here is the method: as §1
Assay [17] shares this target. Description: BLI, 1:1 global fit; kon Error 8.02E+01, R^2 0.9993. Here is the method:
as §1

Values joined by “and” are separate entries in the source; they are usually repeats but may differ in a detail not shown here. Identical values can stand only once.

T4 sequence (P51654 25-358 limits assumed, form in doubt): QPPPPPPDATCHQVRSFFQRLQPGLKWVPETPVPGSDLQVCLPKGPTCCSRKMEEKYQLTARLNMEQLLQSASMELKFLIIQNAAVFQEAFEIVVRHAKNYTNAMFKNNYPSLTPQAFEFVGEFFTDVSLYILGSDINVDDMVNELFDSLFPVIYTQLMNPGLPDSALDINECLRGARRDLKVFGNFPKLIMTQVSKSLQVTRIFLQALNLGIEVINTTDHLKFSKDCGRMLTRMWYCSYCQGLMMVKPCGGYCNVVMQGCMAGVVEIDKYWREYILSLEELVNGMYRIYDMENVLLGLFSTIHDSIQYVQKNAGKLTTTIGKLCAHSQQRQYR
T1 sequence (P51654 25-560 limits assumed): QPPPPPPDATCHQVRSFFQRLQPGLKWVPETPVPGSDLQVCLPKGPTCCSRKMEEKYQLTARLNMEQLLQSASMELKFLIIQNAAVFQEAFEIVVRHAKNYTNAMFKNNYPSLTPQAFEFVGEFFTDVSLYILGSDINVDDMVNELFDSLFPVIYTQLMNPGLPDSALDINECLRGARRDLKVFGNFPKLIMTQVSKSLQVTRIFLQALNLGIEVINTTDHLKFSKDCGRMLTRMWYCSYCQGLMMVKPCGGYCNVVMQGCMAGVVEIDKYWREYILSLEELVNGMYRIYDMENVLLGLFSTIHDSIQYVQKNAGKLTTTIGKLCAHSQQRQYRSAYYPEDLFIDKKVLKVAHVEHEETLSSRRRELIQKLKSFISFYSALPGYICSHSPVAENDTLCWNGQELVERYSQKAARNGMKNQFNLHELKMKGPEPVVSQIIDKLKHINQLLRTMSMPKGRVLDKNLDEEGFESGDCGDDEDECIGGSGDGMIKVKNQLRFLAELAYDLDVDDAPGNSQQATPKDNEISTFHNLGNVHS
T2 sequence (P51654 25-554 limits assumed): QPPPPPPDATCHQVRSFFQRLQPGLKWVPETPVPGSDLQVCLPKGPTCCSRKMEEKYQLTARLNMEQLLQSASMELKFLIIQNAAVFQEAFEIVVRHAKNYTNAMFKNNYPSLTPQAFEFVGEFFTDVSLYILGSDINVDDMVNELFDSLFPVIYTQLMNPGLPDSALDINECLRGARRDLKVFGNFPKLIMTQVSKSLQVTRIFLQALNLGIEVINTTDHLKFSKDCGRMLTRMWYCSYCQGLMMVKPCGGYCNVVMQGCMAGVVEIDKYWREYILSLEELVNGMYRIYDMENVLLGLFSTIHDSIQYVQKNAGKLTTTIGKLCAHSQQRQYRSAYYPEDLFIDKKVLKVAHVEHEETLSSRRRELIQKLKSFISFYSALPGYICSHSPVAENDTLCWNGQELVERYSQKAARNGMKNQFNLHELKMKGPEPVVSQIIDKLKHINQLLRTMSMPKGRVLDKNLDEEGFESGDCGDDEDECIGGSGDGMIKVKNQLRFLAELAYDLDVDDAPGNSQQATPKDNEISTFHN

B1: recombinant mAb 6G11 (6G11 VL and VH fused to human IgG constant regions) (antibody, V domains shown)
VH: QVQLQQPGSELVRPGASVKLSCKASGYTFTSCWMHWVKQRPGQGLEWIGNIYPGYGNTNYDEKFKNKATLTVDTSSSTAYMQLSGLTSEDSAVYYCTRGSYLYAMDYWGQGTSVTVSS
VL: DIQMNQSPSSLSASLGDTITITCHASQNINVWLSWYQQKPGNIPKLLIYKASNLHTGVPSRFSGSGSGTGFTLTISSLQPEDIATYYCQQGQSYPWTFGGGTKLEIKR
notes: Expressed in 293 cells; only the claims assign heavy and light; also called 6G11 mAb
For the molecule B1, the kon in assay [1] amounted to 52400 M⁻¹ s⁻¹. Also, the equilibrium dissociation constant (Kd) in assay [2] worked out at 7.43 nM; in assay [6], 7.4 nM. Also, the dissociation rate constant (koff) in assay [3] came to 0.000389 s⁻¹. In addition, the EC50 in [4] is 0.095 nM; in [5], 0.0072 µg/mL and 0.047 nM. Moreover, in assay [7], the binding result is “binds”.

B2: mAb 6G11 (mouse hybridoma antibody) (antibody, V domains shown)
VH: B1 VH
VL: B1 VL
notes: Mouse IgM with kappa light chain, from hybridoma; claim 21 names 5 and 7 as the amino acid entries
For B2, the “% of cells in the positive gate” value in assay [8] is 44.3%.

B3: recombinant mAb 12D7 (12D7 VL and VH fused to human IgG constant regions) (antibody, V domains shown)
VH: QVQLQQPGSELVRPGASVKLSCKASGYTFTSYWMHWVKQRLGQGLEWIGNIYPGSGSTNYDEKFKSKGTLTVDTSSSTAYMHLSSLTSEDSAVYYCTRGDYDWVFAYWGQGTLVTVSA
VL: DIVMTQSQKFMSTSVGDRVSVTCKASQNVGTNVAWYQQKPGQSPKALIYSASYRYSGVPDRFTGSGSGTDFTLTISNVQSEDLAEYFCQQYNSYPLTFGAGTKLELKR
notes: Expressed in 293 cells; only the claims assign heavy and light; also called 12D7 mAb
For B3, the EC50 in [4] is 0.1 nM; in [5] it was 0.125 µg/mL and 0.82 nM. Also, the Kd was 9.76 nM in [9] and 9.8 nM in assay [6]. In addition, the “EC50 (read off the curve)” value in [5] was approximately 0.1 µg/mL. Besides, the binding result in [7], in [10], in [11] and in assay [12] was “no binding (tested: 10 µg/ml)” each time. Further, the kon in assay [13] turned out to be 41500 M⁻¹ s⁻¹. Moreover, in assay [14], the koff amounted to 0.000405 s⁻¹.

B4: mAb 12D7 (mouse hybridoma antibody) (antibody, V domains shown)
VH: B3 VH
VL: B3 VL
notes: Mouse IgM with kappa light chain, from hybridoma
Consider B4, for which the “% of cells in the positive gate” value in assay [8] worked out at 43.2%.

B5: recombinant mAb 8F8 (8F8 VL and VH fused to human IgG constant regions) (antibody, V domains shown)
VH: EVKLVESGGDLVKPGGSLKLSCAASGFTFSRYGLSWVRQTPEKRLEWVATISGSGSYTYYPDSVKGRFTISRDNAKNNLYLQMSSLRSEDTALYYCVRRGTYGYDNWGQGTTLTVSS
VL: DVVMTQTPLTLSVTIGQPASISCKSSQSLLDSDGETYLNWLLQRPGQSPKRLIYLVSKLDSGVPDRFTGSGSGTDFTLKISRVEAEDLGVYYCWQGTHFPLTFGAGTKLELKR
notes: Expressed in 293 cells; only the claims assign heavy and light; also called 8F8 mAb
As to B5, the dissociation rate constant (koff) in assay [15] came to 0.000206 s⁻¹. Besides, the EC50 in assay [4] was 12 nM; in assay [5] it was 0.294 µg/mL and 1.93 nM. Besides, the values for the Kd in assay [16] and in [6] were 22.9 nM and 23 nM, respectively. Moreover, the kon in assay [17] was determined as 8970 M⁻¹ s⁻¹.

B6: mAb 8F8 (mouse hybridoma antibody) (antibody, V domains shown)
VH: B5 VH
VL: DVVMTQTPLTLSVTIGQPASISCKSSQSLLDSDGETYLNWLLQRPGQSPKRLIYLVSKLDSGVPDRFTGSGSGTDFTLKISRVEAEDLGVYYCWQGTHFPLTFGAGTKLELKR
notes: Mouse IgG2a with kappa light chain, from hybridoma
As for B6, the “% of cells in the positive gate” value in assay [8] came out at 0.31%.

By kon is commonly meant the rate constant with which the complex forms. As usually defined, the Kd is the constant that tells how readily two partners part at equilibrium. Usually koff stands for the rate constant with which the complex falls apart. As a reminder, the EC50 is the concentration at which the effect is half-maximal. In general, EC50 (read off the curve) refers to the concentration at which the effect is half-maximal.
